From the supplement of paper PMC10567573

B1: LMNB1 (parent)
chain: LYKEELEQTYHAKLENARLSSEMN
B2: DYRK1B (parent)
chain: YQGPGTRRLQEVLGVQTGGPGGRR

Variants of: B1
Assay: protein stability index of a GFP-peptide fusion (GPS, HEK-293T) (PSI 1-6); higher = more stable
Conditions: c terminus: a fixed tail appended
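Also: lentivirally expressed fusions sorted by FACS into six bins by GFP to DsRed ratio, PSI derived from sequencing read proportions per bin multiplied by bin number.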

Protein stability index of substitutions, site by site:
R18: A 3.26; L 2.81; I 2.27; P 3.62; D 3.7; V 2.1; M 2.76; N 3.83; F 2.17; S 2.92; H 3.1; W 1.08; E 3.72
M23: E 2.89; G 2.8; S 2.87; F 2.42; I 2.6; D 2.82; Q 3.04; Y 1.6; W 2.58; R 3.21; A 3.24
S21: V 2.26; W 1.82; R 2.25; M 2.72; G 2.51; E 3.18; D 3.48; Q 2.55; I 2.35; K 2.91; T 2.83
N24: F 1.88; V 2.26; C 2.33; W 1.79; M 2.6; D 3.25; G 3.47; H 3.28; L 2.51; E 3.25
N16: M 3.03; R 2.92; P 3.33; H 3.14; C 2.48; I 2.35; D 2.92; E 4
T9: I 2.6; F 2.57; K 3.1; Q 3.77; A 3.59; R 3.64; W 3.65; L 2.16; N 3.88; E 4.24; P 4.23; H 2.7; M 2.65; S 3.92
L14: K 5.64; Y 3.51; Q 4.56; H 4.59; M 3.09; V 3.49; F 2.58; A 4.49; E 4.64; P 5; N 4.54; R 4.78; I 3.46
Y10: E 5.55; D 4.97; L 4.23; Q 4.79; I 4.17; A 4.25; M 4.27; P 4.4; K 5.14; S 4.49; G 4.52; H 4.8; R 4.48; T 4.66
A17: N 3.86; I 1.97; E 4.26; G 4.01; D 4.14; Y 2.2; H 3.52; R 3.71
E7: L 3.17; I 2.84; T 3.26; S 2.72; W 2.34; Y 2.38; R 3.44; F 1.83; P 3.35
Y2: E 4.37; W 1.5; I 2.09; F 1.96; Q 4.21; M 2.31; V 1.77; R 3.48; C 2.78; N 3.46
E15: R 2.76; G 2.65; Y 2.47; C 2.06; L 2.9; I 2.44; T 2.25; W 1.94; P 3.31; N 2.71; K 2.98
L19: M 3.15; V 2.88; A 3.67; Y 2.36; C 3.36; I 2.39; D 4.25; P 2.74; K 3.35; F 2.68; T 3.6; H 3.31; Q 3.92; N 3.76
E4: L 2.17; N 3.27; G 2.38; Q 2.56; S 2.94; H 2.94; D 2.69; W 1.55; V 2.97; R 2.51
Q8: Y 2.45; R 2.81; K 2.49; M 2.5; I 2.52; L 2.38; V 2.09; C 2.86; F 2.09; E 3.15; A 2.19
L6: F 3.21; H 4.26; Q 5.03; M 4.03; S 4.7; P 4.39; Y 4.48; G 3.81
K3: D 3.56; F 1.77; S 2.65; E 2.47; A 1.94; T 2.81; P 3.09; M 1.7; H 2.91; I 2.19; Y 2.34; W 1.61; L 1.79
L1: D 4.03; P 4.45; W 2.21; T 2.85; E 3.99; A 2.92; G 3.53; R 2.91; C 3.14
H11: K 2.4; F 3.29; C 3.73; L 2.84; D 4.95; P 3.91; S 4.06; Q 4.24; A 3.81
S20: Q 2.91; W 1.82; N 3.07; V 2.88; H 2.73; C 2.21; E 2.04; Y 1.93
E22: L 2.68; A 2.63; I 2.74; M 2.58; C 2.83; F 1.93; H 2.22; Y 2.4; V 2.42
A12: S 4.29; C 2.09; G 3.44; K 4.32; N 4.38
K13: C 2.71; D 4.59; H 3.08; S 2.82; N 3.35; G 4.57; V 2.8; W 2.65; Q 3.06; A 3.93; L 2.38; Y 1.84
E5: G 2.46; T 1.83; H 2.27; V 2.77; K 3.09; I 1.82; R 1.76; Y 3.37

Variants of: B2
Assay: as above
Conditions: c terminus: a fixed tail appended

Protein stability index: each site, then its substitutions
Y1: A 4.7; C 4.48; D 4.91; E 4.83; F 3.84; G 4.41; H 4.78; I 4.33; K 3.84; L 4.32; M 4.18; N 4.63; P 5.36; Q 4.04; R 4.22; S 4.96; T 4.72; V 4.28; W 3.9
Q2: C 2.66; D 4.23; E 4.23; F 3.22; G 3.39; H 2.26; I 2.52; K 4.18; L 2.5; M 3.83; N 2.26; P 3.44; R 3.87; S 1.83; T 3.12; W 2.95; Y 3.7
G3: A 3.31; C 3.58; D 3.83; E 4.32; F 2.77; H 3.81; I 2.98; K 2.79; L 3.23; M 3.03; N 3.71; P 3.39; Q 3.11; R 2.25; S 3.44; T 3.52; V 2.38; W 3.1; Y 2.48
P4: A 3.01; C 2.29; D 2.81; E 3.3; F 1.68; H 2.79; I 2.58; K 2.63; L 2.39; M 1.91; N 2.69; Q 2.88; R 2.78; S 2.32; T 2.79; V 3.14; W 1.76; Y 2.35
G5: A 3.44; C 3.38; D 3.69; E 3.74; F 1.92; H 3.17; I 2.76; K 2.94; M 2.46; N 4.4; P 2.8; Q 4.42; R 2.58
